The numbers were not newly measured in article PMC9842050, which cites them from elsewhere.

Read-outs that look alike come from different tables or passages of the source.

Series [1] deals with CXCR4 (Homo sapiens) (UniProt P61073).
Series [2] shares this target. This is another data set of the same source.
The target of series [3] is GLP-1R (Homo sapiens) (UniProt P43220). The series is described as follows: radioligand competition binding. (In general: Loss of bound radioactivity is the signal in a displacement assay; it reports binding, not function.)
GLP-1R (Homo sapiens), sequence (P43220 24-463): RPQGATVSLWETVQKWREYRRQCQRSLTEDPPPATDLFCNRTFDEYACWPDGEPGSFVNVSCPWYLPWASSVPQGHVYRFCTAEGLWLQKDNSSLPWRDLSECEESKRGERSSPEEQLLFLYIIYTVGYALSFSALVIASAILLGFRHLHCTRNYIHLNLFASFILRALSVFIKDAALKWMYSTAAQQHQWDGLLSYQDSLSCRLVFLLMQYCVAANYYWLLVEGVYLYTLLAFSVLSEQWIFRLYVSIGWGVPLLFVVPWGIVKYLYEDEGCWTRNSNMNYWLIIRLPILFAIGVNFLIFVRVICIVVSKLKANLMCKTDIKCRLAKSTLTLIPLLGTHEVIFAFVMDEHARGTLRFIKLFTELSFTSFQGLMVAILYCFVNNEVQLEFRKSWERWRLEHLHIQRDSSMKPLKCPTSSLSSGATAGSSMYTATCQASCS
Series [4] shares this target. The series is described as follows: radioligand competition binding. This is another data set of the same source.

exendin-4, sequence (P26349 48-86): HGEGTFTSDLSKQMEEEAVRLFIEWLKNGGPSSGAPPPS
CXCR4 (Homo sapiens), sequence (P61073 whole entry): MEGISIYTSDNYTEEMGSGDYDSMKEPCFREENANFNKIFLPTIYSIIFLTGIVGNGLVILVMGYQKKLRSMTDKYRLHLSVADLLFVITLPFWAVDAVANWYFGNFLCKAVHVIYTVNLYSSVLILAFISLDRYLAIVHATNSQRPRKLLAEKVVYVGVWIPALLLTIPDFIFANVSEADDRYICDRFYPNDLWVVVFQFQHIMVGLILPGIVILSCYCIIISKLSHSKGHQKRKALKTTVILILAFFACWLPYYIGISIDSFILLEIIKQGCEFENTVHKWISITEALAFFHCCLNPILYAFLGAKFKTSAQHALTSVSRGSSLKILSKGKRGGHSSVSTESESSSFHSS
SDF-1α, sequence (P48061 24-88): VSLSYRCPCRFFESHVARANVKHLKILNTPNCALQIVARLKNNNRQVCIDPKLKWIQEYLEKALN

In general, Kd refers to the free concentration of one partner at which half of the binding sites on the other are occupied at equilibrium, for simple one-to-one binding. SDF-1α (from UniProt P48061): the dissociation constant Kd in the series with CXCR4 (Homo sapiens) [1] was 1.4 nM; with CXCR4 (Homo sapiens) [2], 8.4 nM.
For the substance exendin-4 (from UniProt P26349), the figures for the Kd in the series with GLP-1R (Homo sapiens) [3] and in the series with GLP-1R (Homo sapiens) [4] were 37.8 nM and 54.3 nM, respectively.
